The values below come from article PMC4562997, “Study of light-induced MscL gating by EPR spectroscopy” (European Biophysics Journal, 2015).

Data set [1] deals with the molecule itself. The data set is described as follows: chromatofocussing; protein purified in LDAO, detergent exchanged to Triton X-100 by size-exclusion chromatography, then chromatofocussing; pI compared with that of the pentamer. (In general: In gel filtration, larger molecules generally elute earlier.)
Data set [2] deals with the molecule itself. Briefly: cell-based or functional assay.
Data set [3] deals with the molecule itself. The data set is described as follows: CW-EPR, intersubunit spin-spin interaction (spectral broadening); heteropentamers with 1, 2 or 3 light switches reconstituted in asolectin liposomes, room temperature, X-band; maximally (10:1) against minimally (1:10) spin-labelled channels.
Data set [4] concerns the target T1, G22C MscL, StrepII-tagged, labelled with the light switch at cysteine 22 (E. coli, UniProt P0A742 1-136, G22C, cysteine 22 alkylated with the light switch (iodoacetate bearing the photocleavable protecting group 6-nitroveratryl alcohol)).
T1 construct: MscL, mechanosensitive channel of large conductance, E. coli; also called light switch-labeled-StrepII-tagged MscL; not shown: StrepII, C-terminal, kept
T1 sequence (looked up): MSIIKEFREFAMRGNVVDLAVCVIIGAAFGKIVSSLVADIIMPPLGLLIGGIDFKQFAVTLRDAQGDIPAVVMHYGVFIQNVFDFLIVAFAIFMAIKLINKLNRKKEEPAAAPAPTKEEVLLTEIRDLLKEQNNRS
Briefly: sequential affinity chromatography (Ni-NTA, then Streptactin) + chromatofocussing; 6His-tagged and StrepII-tagged proteins purified in LDAO, mixed 1:1 (v/v), 45 min at room temperature, detergent exchanged to Triton X-100 by size exclusion; homopentamers removed on the two columns, heteropentamers separated on Mono P by pI. To be noted: both partners purified.

Data set [5] deals with the molecule itself. The data set is described as follows: native gel or EMSA; blue native gel (8-16 % gradient); pure G22C MscL incubated 1 h at room temperature with urea, guanidinium hydrochloride or trifluoroethanol (various detergents also screened). For orientation: Mobility shift assays separate free from complexed probe on a gel.

Residue numbers refer to the chain shown, from its start. Numbers in names are those of the source.

B1: G22C-Strep MscL, unlabelled, after detergent exchange from LDAO to Triton X-100 (natural protein, E. coli, UniProt P0A742 1-136, looked up)
chain: T1 sequence (looked up)
notes: MscL, mechanosensitive channel of large conductance, E. coli
As a reminder, the stoichiometry N is the number of molecules, sites or subunits per partner or assembly. With B1, the “stoichiometry N” value in data set [1] was 5. Also, the “calcein dequenching assay of MscL reconstituted into liposomes, percent release; after exchange of LDAO to Triton X-100 (same protein:lipid ratio)” value in data set [2] is 85%.

B2: G22C MscL, 6His-tagged, labelled with the EPR spin label at cysteine 22 (natural protein, E. coli, UniProt P0A742 1-136, looked up)
chain: T1 sequence (looked up)
modifications: cysteine 22 labelled with (1-oxyl-2,2,5,5-tetramethylpyrrolin-3-methyl) methanethiosulfonate spin label (maximally, 10:1, or minimally, 1:10 label:protein)
notes: MscL, mechanosensitive channel of large conductance, E. coli; also called EPR spin-labeled- His-tagged MscL; source: E. coli PB104 (mscL-null), p1BAD vector, purified in LDAO (Ni-NTA), spin-labelled in detergent solution; not shown: 6His, C-terminal, kept
Turning to B2, the binding result in data set [3] and in data set [4] was “binds” each time.

B3: G22C MscL (mechanosensitive channel of large conductance, E. coli), pure, unlabelled, as run on the blue native gel (natural protein, UniProt P0A742 1-136, looked up)
chain: T1 sequence (looked up)
notes: MscL, mechanosensitive channel of large conductance, E. coli; The denaturant treatment stands in the methods right after the isolation of the 6His-tagged protein, so the 6His form is likely; source: E. coli PB104 (mscL-null), p1BAD vector, purified from membrane vesicles
As to B3, the “stoichiometry N” value in data set [5] was 5.

B4: A28C MscL labelled with the EPR spin label at cysteine 28 (natural protein, E. coli, UniProt P0A742 1-136, looked up)
chain: T1 sequence (looked up) with C22G, A28C
modifications: cysteine 28 labelled with (1-oxyl-2,2,5,5-tetramethylpyrrolin-3-methyl) methanethiosulfonate spin label
notes: MscL, mechanosensitive channel of large conductance, E. coli; source: E. coli PB104 (mscL-null), p1BAD vector, purified, spin-labelled
As for B4, the binding result in data set [3] and in data set [4] was “binds” in each case.

B5: I24C MscL labelled with the EPR spin label at cysteine 24 (natural protein, E. coli, UniProt P0A742 1-136, looked up)
chain: T1 sequence (looked up) with C22G, I24C
modifications: cysteine 24 labelled with (1-oxyl-2,2,5,5-tetramethylpyrrolin-3-methyl) methanethiosulfonate spin label
notes: as for B4
Regarding B5, the binding result in data set [3] and in data set [4] was “binds” in each case.
